Test results: publication PMC5003356

Legend:
P54nrb-HIS = target: T1, P54nrb-HIS (UniProt Q15233); assay: competition FP; settings: 3-10-3 cEt gap-mer; BRET: 1X binding buffer (0.1 M potassium acetate, 20 mM Tris pH 7.5, 1 mM EDTA, 0.01% NP-40), room temperature, 15 min; FP in the same buffer; c-Jun in OptiMEM …
T1 sequence: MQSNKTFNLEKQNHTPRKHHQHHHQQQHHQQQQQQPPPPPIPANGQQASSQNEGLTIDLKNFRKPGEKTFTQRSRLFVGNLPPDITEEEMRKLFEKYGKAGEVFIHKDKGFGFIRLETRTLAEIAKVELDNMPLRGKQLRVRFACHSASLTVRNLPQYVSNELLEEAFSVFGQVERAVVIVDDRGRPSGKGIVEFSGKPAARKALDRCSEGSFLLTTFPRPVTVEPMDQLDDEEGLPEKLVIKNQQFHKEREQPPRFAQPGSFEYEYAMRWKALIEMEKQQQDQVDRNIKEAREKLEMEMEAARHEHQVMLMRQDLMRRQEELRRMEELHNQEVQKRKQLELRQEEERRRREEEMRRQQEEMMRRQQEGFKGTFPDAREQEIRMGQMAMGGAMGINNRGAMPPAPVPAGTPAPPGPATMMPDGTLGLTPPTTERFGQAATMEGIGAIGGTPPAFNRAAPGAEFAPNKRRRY

[1] = target: T2, NLuc-La dR1/R2 internal_change (UniProt P05455); assay: BRET; settings: PS; 5-10-5 (S)-cEt gap-mer; BRET: 1X binding buffer (0.1 M potassium acetate, 20 mM Tris pH 7.5, 1 mM EDTA, 0.01% NP-40), room temperature, 15 min; FP in the same buffer; c-Jun in OptiMEM …
T2 sequence: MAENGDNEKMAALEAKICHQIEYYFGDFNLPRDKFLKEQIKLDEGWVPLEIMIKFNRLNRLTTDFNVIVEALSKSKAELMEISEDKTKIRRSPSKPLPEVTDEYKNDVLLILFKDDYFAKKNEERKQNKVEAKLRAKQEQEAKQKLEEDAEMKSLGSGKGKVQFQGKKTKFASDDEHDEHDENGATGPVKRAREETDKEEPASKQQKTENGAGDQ

Row | Sequence | Kd (P54nrb-HIS) [nM] | binding signal (fold lower affinity than full length) [1]
1 | AACATGTCTGCCAGGG [660956] | 33 | 
2 | ACCCTGCCACGATGTA [660992] | 95.1 | 
3 | CCACTGCGCAGGCCAG [660935] | 337 | 
4 | CCAGCGGGTGGACTGT [660923] | 38.3 | 
5 | CCCTCCCTCCCGCTAG [661121] | 19.5 | 
6 | CTGCTAGCCTCTGGATTTGA [766636 cEt gap-mer] |  | 50
7 | CTGGGAACTGGTCACC [660899] | 119 | 
8 | CTTCTAGCCACTGGCT [661010] | 326 | 
9 | GGGAGGAGGACAGCTC [660908] | 4.6 | 
10 | GTTAAGAAGGCTGTCC [661073] | 260 | 
11 | TCAGTCATGGTATAAA [661115] | 86.9 | 
12 | TCCACAGAGCGGACTG [660965] | 310 | 
13 | TGAGAAGATCTCCCGG [661103] | 33.6 | 
